This note sets out measurements from publication PMC12192683.

For this experiment, the target named is low-density lipoprotein receptor-related protein 1 (LRP1), full-length, purified from human placenta (human) (UniProt Q07954). The experiment is described as follows: SPR; Biacore 3000; receptor amine-coupled to CM5 chip; ligand flowed in HBS-P (0.01 M HEPES pH 7.4, 0.15 M NaCl, 0.005% P20) with 1 mM CaCl2, 10 ul/min, 25 C; kinetic fit to a 1:1 Langmuir model.
Sequence of low-density lipoprotein receptor-related protein 1 (LRP1), full-length, purified from human placenta (human) (Q07954 20-4544): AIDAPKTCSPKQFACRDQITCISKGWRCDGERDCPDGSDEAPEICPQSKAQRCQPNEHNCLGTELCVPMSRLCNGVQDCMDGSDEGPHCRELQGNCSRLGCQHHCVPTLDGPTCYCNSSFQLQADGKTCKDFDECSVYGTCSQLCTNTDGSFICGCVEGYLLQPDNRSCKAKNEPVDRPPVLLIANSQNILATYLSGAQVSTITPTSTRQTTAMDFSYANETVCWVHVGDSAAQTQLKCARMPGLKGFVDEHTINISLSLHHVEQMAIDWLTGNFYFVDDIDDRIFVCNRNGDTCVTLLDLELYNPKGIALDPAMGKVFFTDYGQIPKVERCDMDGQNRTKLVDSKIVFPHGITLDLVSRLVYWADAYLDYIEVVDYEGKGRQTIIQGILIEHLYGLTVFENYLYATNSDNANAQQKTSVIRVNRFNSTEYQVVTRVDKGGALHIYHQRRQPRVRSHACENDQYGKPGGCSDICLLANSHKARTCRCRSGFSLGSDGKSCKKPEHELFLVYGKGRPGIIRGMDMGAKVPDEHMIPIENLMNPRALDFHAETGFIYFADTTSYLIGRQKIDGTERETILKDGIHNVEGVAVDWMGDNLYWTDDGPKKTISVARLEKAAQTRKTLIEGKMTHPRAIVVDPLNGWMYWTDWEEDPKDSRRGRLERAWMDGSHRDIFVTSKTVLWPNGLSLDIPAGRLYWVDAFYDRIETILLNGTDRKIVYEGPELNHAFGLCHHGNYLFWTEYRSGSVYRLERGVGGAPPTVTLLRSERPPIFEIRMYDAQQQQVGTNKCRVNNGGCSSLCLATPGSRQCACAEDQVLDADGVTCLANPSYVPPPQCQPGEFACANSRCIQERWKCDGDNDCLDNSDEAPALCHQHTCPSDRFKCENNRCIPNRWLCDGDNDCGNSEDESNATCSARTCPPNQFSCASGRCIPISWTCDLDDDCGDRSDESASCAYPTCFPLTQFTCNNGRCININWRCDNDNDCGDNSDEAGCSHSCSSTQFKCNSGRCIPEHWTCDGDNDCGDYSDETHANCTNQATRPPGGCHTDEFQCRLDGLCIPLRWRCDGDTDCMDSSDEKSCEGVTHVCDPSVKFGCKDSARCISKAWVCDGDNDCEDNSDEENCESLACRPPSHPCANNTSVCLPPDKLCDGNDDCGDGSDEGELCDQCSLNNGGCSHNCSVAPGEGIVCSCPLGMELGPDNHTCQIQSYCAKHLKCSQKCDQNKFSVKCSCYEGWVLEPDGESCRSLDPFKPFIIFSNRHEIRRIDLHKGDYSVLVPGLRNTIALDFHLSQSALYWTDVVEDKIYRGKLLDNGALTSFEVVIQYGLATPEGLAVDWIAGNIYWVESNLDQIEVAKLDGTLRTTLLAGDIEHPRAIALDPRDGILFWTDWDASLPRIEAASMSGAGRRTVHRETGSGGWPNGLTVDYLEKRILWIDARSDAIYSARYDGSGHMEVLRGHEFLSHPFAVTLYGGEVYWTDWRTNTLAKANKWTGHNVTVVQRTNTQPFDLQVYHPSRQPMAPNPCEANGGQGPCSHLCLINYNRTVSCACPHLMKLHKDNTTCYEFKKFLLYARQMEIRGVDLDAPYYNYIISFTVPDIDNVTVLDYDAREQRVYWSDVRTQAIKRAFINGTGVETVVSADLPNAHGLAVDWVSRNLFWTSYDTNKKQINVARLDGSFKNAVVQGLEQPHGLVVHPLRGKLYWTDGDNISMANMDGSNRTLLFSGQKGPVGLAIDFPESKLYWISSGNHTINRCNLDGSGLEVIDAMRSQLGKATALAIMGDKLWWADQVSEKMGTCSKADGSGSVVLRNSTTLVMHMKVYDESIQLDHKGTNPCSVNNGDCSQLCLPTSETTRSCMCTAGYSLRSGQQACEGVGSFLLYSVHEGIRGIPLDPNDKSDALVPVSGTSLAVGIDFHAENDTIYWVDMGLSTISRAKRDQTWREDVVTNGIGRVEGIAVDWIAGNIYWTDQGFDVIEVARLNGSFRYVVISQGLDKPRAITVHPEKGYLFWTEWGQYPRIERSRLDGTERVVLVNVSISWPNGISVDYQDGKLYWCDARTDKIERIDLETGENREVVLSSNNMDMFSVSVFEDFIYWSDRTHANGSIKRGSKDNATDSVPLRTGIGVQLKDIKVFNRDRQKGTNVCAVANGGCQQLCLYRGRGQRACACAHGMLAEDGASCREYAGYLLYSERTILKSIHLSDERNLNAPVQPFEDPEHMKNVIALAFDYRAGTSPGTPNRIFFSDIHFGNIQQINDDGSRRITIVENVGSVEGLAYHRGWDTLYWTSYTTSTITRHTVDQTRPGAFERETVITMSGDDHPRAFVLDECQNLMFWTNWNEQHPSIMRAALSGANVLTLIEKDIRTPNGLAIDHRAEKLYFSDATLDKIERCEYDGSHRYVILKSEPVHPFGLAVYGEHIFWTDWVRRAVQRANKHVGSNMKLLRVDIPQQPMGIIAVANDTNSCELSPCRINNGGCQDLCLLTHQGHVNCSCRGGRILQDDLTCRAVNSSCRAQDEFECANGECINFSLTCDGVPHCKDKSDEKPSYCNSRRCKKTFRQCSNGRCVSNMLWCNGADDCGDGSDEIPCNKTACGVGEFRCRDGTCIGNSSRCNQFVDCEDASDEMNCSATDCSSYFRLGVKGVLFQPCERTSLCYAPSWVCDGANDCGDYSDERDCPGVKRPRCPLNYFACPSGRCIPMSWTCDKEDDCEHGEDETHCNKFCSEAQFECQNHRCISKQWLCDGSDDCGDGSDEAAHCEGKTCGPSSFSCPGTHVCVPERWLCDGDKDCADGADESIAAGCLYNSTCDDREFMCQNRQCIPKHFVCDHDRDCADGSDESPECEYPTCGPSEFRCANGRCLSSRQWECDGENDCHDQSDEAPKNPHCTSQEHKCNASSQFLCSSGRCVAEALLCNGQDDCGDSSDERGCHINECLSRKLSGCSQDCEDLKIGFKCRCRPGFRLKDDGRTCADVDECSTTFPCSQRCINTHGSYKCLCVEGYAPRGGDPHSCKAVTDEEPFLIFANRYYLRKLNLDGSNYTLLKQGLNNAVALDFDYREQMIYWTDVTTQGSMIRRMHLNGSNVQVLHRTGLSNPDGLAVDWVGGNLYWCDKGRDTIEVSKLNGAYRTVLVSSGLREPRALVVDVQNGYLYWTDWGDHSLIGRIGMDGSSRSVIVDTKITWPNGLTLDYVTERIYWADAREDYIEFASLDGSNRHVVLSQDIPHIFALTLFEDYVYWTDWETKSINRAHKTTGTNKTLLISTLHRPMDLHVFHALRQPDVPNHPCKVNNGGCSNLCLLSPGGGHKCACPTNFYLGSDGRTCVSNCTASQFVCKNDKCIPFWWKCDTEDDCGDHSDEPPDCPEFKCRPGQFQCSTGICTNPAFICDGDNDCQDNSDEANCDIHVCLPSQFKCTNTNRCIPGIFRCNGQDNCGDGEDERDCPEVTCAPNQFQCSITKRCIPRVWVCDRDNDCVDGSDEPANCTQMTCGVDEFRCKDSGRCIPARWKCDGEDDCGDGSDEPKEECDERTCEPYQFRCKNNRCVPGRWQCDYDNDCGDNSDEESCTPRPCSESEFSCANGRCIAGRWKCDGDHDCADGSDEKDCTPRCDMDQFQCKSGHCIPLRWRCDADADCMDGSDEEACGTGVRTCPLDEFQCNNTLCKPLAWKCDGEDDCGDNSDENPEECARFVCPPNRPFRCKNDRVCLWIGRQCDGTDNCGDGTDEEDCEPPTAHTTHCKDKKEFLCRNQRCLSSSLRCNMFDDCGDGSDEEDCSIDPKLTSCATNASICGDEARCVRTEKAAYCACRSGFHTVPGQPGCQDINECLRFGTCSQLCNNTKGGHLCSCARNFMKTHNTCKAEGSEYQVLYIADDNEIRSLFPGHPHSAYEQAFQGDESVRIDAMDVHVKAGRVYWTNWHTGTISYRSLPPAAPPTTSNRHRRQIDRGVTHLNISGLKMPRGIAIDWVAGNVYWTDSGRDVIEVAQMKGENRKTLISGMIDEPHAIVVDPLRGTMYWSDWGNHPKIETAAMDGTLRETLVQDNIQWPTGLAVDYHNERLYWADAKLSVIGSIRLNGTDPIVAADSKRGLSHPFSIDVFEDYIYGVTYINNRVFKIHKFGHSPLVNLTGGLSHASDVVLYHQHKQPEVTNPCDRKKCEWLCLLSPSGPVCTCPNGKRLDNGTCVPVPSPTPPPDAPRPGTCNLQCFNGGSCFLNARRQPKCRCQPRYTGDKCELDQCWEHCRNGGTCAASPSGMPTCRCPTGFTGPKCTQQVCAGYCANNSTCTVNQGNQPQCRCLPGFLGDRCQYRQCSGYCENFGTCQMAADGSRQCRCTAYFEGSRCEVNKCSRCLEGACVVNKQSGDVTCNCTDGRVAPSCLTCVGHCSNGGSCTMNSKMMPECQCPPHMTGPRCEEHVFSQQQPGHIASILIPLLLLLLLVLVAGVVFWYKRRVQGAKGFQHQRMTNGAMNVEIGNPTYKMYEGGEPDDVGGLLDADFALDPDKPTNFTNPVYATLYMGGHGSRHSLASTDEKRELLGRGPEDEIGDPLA

One may read the Kd as the concentration at which binding is half-saturated. Read a low Kd as higher affinity. By koff is commonly meant the rate constant with which the complex falls apart. High values mean a short-lived complex, low ones a long-lived complex. The kon is the second-order rate constant of association. A higher kon goes with fast association. “SARS-CoV-2 trimeric spike protein, stabilized in prefusion conformation (from UniProt P0DTC2 14-1273) (natural protein)”: the dissociation constant (Kd) stood at 72 nM, the off-rate (koff) came out at 0.00034 s⁻¹ and the kon amounted to 4800 M⁻¹ s⁻¹.
